Measurements as given in article doi:10.1101/2022.04.07.487468.
Where two headings read alike, the source gives them in different places.

B1: zfWnt5b-GFP (ligand)
chain: QLLVVANSWWSLAMNPIQRPEMYIIGAQPLCSQLTGLSQGQRKLCQLYQDHMVYIGEGAKTGIKECQYQFRQRRWNCSTVDNTSVFGRVMHIGSRETAFTYAVSAAGVVNAVSRACREGELSTCGCSRAARPRDLPRDWLWGGCGDNVNYGYRFAREFVDAREREKNYPRGSVEHARTLMNLQNNEAGRMAVYNLANVACKCHGVSGSCSLKTCWLQLADFRRVGEFLKEKYDSAAAMRINRRGKLELVNNRFNPPTGEDLVYIDPSPDYCLRNETTGSLGTQGRLCNKTSEGMDGCELMCCGRGYDQFKTYKHERCHCKFHWCCYVKCKRCTSLVDQFVCK

How the values were obtained:
[1] = biological target: memGFP (zebrafish | not stated); assay: fluorescence cross-correlation spectroscopy
[2] = biological target: Ror2-mCherry (not stated (xRor2 or zebrafish Ror2 cDNA cloned)); assay: fluorescence cross-correlation spectroscopy
[3] = biological target: zfRor2-ΔCRD-mCherry (zebrafish); assay: fluorescence cross-correlation spectroscopy
[4] = biological target: mCherry-xRor2 (not stated (prefix x in xRor2; Xenopus from memory)); assay: FRET or BRET
[5] = biological target: Ror2-mCherry (not stated (xRor2 or zebrafish Ror2 cDNA cloned)); assay: fluorescence cross-correlation spectroscopy; remark: listed apart in the source
[6] = biological target: Ror2-mCherry (not stated (xRor2 or zebrafish Ror2 cDNA cloned)); assay: fluorescence cross-correlation spectroscopy; remark: listed apart in the source

Row | Molecule | Kd [1] | Kd [2] | Kd [3] | FRET efficiency [4] | Kd [5] | Kd [6]
1 | cytosolic mCherry | > 9.3 µM |  |  |  |  | 
2 | B1 |  | 0.311 to 0.476 µM | > 6.68 µM | 11.3 to 13% | 3.56 µM | 0.45 µM
